# Data as given in the supplement of paper PMC10065799, “High-throughput profiling of sequence recognition by tyrosine kinases and SH2 domains using bacterial peptide display” (eLife, 2023).
# System: AncSZ
# Test: phosphorylation enrichment, bacterial display (enrichment ratio); higher = better substrate or ligand; peptides without Tyr show the background
# 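Note: 11-residue human phosphosite peptides and single-mutation variants displayed on the E. coli surface, counted by deep sequencing, each peptide's frequency after selection divided by its frequency in the unselected input library; frequency after pTyr selection over input frequency; kinase dosed for 20-30% of maximal phosphorylation in three min.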
row,Sequence,phosphorylation enrichment
1,GGGGSYNNFGN [HNRNPA1_Y312_D314N],0.545
2,YTHSDYQYSQR [PKP2_Y166],0.892
3,MPLTKYLKRIK [CNGB3_Y200_E199K],0.641
4,KVGPGSLGSGG [RET_Y826_Y826S],0.4
5,CNPLCYPTIMI [OR6K6_Y160_R159C],0.867
6,ATHRGYDLDNP [MMUT_Y146_S148L],0.64
7,RQSHNYLGGFA [SYK_Y47_R45H],0.686
8,NGQAVYAACQT [XDH_Y1092],0.545
9,HSGLAYTMERS [GLUD1_Y512],0.933
10,LEFGDCHPLKP [VPS35L_Y32_Y32C],1.63
11,LSSNLYFRWLT [CNGA3_Y168_P163L_YF],1.76
12,RLTEGYTGPFK [ZNF862_Y181_I178T],0.519
13,ILTYKYLQKPM [KIT_Y547],0.666
14,EREYKYGAHNY [OAT_Y50],0.516
15,FRPHLYGTPSR [ADGRE2_Y670_S665F],0.682
16,DAICYYRMENA [NPHS2_Y195],2.23
17,VRFMANTDETF [F8_Y450_Y450N],0.928

row,Sequence,phosphorylation enrichment
1,ALDHKYHGGGG [HBB_Y146_A143D],0.458
2,TLKVGYTEKQR [EPHA3_Y659],0.417
3,PGVDRYSLGTS [C5orf42_Y1451],0.789
4,HGVSSYDTVIS [LDLR_Y465],1.19
5,QRCYVYYYSYL [PTEN_Y176_R173C],1.86
6,HQKKPYCHTHN [NRAP_Y53_A56T],1.88
7,INVTIYGKTFR [EFHC1_Y177_I174V],1.18
8,RRAKGYPIDLY [ITGB2_Y125],1.07
9,RKELFYKADGE [SERPINC1_Y272],1.12
10,KDGNGYISAAE [CALM1_Y100],0.646
11,SRDDYYETIAM [NPY1R_Y347_D346Y],1.33
12,PSQRRNVFFFS [PTEN_Y174_Y174N_YF],1.31
13,ALRASYTPSPA [ESS2_Y418],0.448
14,PINLFYLMDLS [ITGB2_Y131_D128N_YF],1.46
15,MKGDFYCFLAE [YWHAG_Y131_R132C_YF],1.32
16,TSPKSCPSQKH [CAP2_Y316_Y316C],0.546

# Target: EPHB1 (UniProt P54762)
# Sequence (P54762 whole entry, looked up): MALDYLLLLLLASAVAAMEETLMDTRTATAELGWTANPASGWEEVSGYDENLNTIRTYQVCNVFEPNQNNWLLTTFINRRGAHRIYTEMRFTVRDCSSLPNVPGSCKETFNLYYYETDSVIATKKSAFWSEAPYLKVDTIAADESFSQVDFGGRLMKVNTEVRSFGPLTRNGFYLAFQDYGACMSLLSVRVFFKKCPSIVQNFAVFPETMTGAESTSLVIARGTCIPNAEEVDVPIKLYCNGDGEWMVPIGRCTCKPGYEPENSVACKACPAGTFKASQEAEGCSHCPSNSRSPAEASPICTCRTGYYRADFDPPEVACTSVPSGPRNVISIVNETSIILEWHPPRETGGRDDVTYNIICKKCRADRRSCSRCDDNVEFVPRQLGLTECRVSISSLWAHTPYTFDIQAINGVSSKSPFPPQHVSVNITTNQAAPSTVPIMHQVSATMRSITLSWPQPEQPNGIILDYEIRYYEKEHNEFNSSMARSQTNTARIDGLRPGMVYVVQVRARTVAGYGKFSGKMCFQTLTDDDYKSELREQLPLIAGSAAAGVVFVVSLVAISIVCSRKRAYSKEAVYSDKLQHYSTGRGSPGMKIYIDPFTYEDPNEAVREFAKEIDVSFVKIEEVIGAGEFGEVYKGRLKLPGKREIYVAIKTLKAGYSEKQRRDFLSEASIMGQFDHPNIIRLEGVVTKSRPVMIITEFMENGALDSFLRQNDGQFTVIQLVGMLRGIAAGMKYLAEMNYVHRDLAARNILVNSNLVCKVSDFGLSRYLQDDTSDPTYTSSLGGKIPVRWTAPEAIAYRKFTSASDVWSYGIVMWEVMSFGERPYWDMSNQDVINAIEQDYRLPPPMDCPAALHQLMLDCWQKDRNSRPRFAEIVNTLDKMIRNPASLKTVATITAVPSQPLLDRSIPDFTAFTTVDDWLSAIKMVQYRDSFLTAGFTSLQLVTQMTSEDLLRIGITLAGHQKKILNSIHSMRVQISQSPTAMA
# Test: as above
row,Sequence,phosphorylation enrichment
1,GGGGSYNNFGN [HNRNPA1_Y312_D314N],0.379
2,YTHSDYQYSQR [PKP2_Y166],0.479
3,MPLTKYLKRIK [CNGB3_Y200_E199K],0.425
4,KVGPGSLGSGG [RET_Y826_Y826S],0.29
5,CNPLCYPTIMI [OR6K6_Y160_R159C],0.518
6,ATHRGYDLDNP [MMUT_Y146_S148L],0.459
7,RQSHNYLGGFA [SYK_Y47_R45H],0.427
8,NGQAVYAACQT [XDH_Y1092],2.24
9,HSGLAYTMERS [GLUD1_Y512],0.897
10,LEFGDCHPLKP [VPS35L_Y32_Y32C],0.863
11,LSSNLYFRWLT [CNGA3_Y168_P163L_YF],0.783
12,RLTEGYTGPFK [ZNF862_Y181_I178T],0.323
13,ILTYKYLQKPM [KIT_Y547],0.686
14,EREYKYGAHNY [OAT_Y50],0.354
15,FRPHLYGTPSR [ADGRE2_Y670_S665F],0.481
16,DAICYYRMENA [NPHS2_Y195],0.866
17,VRFMANTDETF [F8_Y450_Y450N],0.701

row,Sequence,phosphorylation enrichment
1,ALDHKYHGGGG [HBB_Y146_A143D],0.342
2,TLKVGYTEKQR [EPHA3_Y659],0.259
3,PGVDRYSLGTS [C5orf42_Y1451],0.577
4,HGVSSYDTVIS [LDLR_Y465],0.515
5,QRCYVYYYSYL [PTEN_Y176_R173C],1.18
6,HQKKPYCHTHN [NRAP_Y53_A56T],1.7
7,INVTIYGKTFR [EFHC1_Y177_I174V],0.631
8,RRAKGYPIDLY [ITGB2_Y125],0.684
9,RKELFYKADGE [SERPINC1_Y272],0.824
10,KDGNGYISAAE [CALM1_Y100],0.394
11,SRDDYYETIAM [NPY1R_Y347_D346Y],2.19
12,PSQRRNVFFFS [PTEN_Y174_Y174N_YF],0.559
13,ALRASYTPSPA [ESS2_Y418],0.352
14,PINLFYLMDLS [ITGB2_Y131_D128N_YF],0.752
15,MKGDFYCFLAE [YWHAG_Y131_R132C_YF],1.18
16,TSPKSCPSQKH [CAP2_Y316_Y316C],0.385

# Target: EPHB2 (UniProt P29323)
# Sequence (P29323 whole entry, looked up): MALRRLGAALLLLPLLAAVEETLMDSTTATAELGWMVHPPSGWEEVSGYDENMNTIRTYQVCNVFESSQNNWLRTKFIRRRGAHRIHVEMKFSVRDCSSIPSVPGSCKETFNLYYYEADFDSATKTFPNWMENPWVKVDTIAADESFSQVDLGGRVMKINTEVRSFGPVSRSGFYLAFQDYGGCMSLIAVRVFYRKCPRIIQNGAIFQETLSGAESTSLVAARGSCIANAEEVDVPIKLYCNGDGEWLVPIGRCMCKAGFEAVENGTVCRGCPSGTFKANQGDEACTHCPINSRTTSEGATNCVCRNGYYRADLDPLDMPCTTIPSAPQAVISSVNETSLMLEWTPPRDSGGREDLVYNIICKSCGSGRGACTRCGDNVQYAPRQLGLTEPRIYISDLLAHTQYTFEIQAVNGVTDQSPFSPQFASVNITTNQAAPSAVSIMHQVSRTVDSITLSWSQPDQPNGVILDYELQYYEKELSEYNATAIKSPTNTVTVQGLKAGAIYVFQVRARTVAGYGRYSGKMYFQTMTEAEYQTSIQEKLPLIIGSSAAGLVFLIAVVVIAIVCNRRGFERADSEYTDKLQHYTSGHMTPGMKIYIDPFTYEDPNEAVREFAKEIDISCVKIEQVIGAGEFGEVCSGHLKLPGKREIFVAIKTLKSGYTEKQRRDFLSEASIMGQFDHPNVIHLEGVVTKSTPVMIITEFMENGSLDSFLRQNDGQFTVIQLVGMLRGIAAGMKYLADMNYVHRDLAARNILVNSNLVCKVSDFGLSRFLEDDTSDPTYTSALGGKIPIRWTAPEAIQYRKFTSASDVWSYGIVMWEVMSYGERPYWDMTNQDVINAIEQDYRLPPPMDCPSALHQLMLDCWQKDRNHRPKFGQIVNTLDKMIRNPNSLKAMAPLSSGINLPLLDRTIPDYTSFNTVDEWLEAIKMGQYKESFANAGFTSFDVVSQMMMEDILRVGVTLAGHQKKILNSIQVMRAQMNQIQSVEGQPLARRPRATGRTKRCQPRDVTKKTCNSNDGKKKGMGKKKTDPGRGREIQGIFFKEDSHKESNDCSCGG
# Test: as above
row,Sequence,phosphorylation enrichment
1,GGGGSYNNFGN [HNRNPA1_Y312_D314N],0.416
2,YTHSDYQYSQR [PKP2_Y166],0.482
3,MPLTKYLKRIK [CNGB3_Y200_E199K],0.377
4,KVGPGSLGSGG [RET_Y826_Y826S],0.353
5,CNPLCYPTIMI [OR6K6_Y160_R159C],0.524
6,ATHRGYDLDNP [MMUT_Y146_S148L],0.434
7,RQSHNYLGGFA [SYK_Y47_R45H],0.537
8,NGQAVYAACQT [XDH_Y1092],2.2
9,HSGLAYTMERS [GLUD1_Y512],0.495
10,LEFGDCHPLKP [VPS35L_Y32_Y32C],0.802
11,LSSNLYFRWLT [CNGA3_Y168_P163L_YF],0.749
12,RLTEGYTGPFK [ZNF862_Y181_I178T],0.41
13,ILTYKYLQKPM [KIT_Y547],0.591
14,EREYKYGAHNY [OAT_Y50],0.376
15,FRPHLYGTPSR [ADGRE2_Y670_S665F],0.458
16,DAICYYRMENA [NPHS2_Y195],0.795
17,VRFMANTDETF [F8_Y450_Y450N],0.568

row,Sequence,phosphorylation enrichment
1,ALDHKYHGGGG [HBB_Y146_A143D],0.355
2,TLKVGYTEKQR [EPHA3_Y659],0.299
3,PGVDRYSLGTS [C5orf42_Y1451],0.788
4,HGVSSYDTVIS [LDLR_Y465],0.865
5,QRCYVYYYSYL [PTEN_Y176_R173C],1.45
6,HQKKPYCHTHN [NRAP_Y53_A56T],0.854
7,INVTIYGKTFR [EFHC1_Y177_I174V],0.588
8,RRAKGYPIDLY [ITGB2_Y125],0.87
9,RKELFYKADGE [SERPINC1_Y272],0.548
10,KDGNGYISAAE [CALM1_Y100],0.491
11,SRDDYYETIAM [NPY1R_Y347_D346Y],1.53
12,PSQRRNVFFFS [PTEN_Y174_Y174N_YF],0.342
13,ALRASYTPSPA [ESS2_Y418],0.34
14,PINLFYLMDLS [ITGB2_Y131_D128N_YF],0.886
15,MKGDFYCFLAE [YWHAG_Y131_R132C_YF],0.88
16,TSPKSCPSQKH [CAP2_Y316_Y316C],0.361

# Target: FGFR1 (UniProt P11362)
# Sequence (P11362 whole entry, looked up): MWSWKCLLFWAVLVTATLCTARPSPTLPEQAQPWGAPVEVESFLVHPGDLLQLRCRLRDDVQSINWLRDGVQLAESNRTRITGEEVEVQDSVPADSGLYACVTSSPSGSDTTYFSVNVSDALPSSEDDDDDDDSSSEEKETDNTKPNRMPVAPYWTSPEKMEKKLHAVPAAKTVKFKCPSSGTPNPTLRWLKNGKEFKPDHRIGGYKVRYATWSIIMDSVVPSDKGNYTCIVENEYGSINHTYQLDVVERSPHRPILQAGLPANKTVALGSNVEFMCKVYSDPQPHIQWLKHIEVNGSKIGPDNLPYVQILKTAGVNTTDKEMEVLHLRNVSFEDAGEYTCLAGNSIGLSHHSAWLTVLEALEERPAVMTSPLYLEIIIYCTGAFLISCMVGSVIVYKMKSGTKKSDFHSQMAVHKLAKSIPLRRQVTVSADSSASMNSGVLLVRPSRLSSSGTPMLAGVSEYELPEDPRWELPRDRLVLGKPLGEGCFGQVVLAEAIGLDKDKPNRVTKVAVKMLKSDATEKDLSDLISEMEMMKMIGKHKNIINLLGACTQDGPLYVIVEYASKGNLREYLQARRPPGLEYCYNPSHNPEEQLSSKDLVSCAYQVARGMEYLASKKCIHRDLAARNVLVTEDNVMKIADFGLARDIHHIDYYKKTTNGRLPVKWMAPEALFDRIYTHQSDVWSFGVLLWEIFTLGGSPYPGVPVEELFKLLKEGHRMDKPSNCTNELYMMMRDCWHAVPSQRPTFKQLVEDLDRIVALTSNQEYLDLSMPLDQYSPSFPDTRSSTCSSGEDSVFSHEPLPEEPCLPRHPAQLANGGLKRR
# Test: as above
row,Sequence,phosphorylation enrichment
1,GGGGSYNNFGN [HNRNPA1_Y312_D314N],0.362
2,YTHSDYQYSQR [PKP2_Y166],0.467
3,MPLTKYLKRIK [CNGB3_Y200_E199K],0.472
4,KVGPGSLGSGG [RET_Y826_Y826S],0.308
5,CNPLCYPTIMI [OR6K6_Y160_R159C],1.71
6,ATHRGYDLDNP [MMUT_Y146_S148L],0.409
7,RQSHNYLGGFA [SYK_Y47_R45H],0.501
8,NGQAVYAACQT [XDH_Y1092],0.506
9,HSGLAYTMERS [GLUD1_Y512],0.403
10,LEFGDCHPLKP [VPS35L_Y32_Y32C],0.763
11,LSSNLYFRWLT [CNGA3_Y168_P163L_YF],1.15
12,RLTEGYTGPFK [ZNF862_Y181_I178T],0.364
13,ILTYKYLQKPM [KIT_Y547],0.396
14,EREYKYGAHNY [OAT_Y50],0.348
15,FRPHLYGTPSR [ADGRE2_Y670_S665F],0.747
16,DAICYYRMENA [NPHS2_Y195],7.73
17,VRFMANTDETF [F8_Y450_Y450N],0.439

row,Sequence,phosphorylation enrichment
1,ALDHKYHGGGG [HBB_Y146_A143D],0.365
2,TLKVGYTEKQR [EPHA3_Y659],0.404
3,PGVDRYSLGTS [C5orf42_Y1451],0.755
4,HGVSSYDTVIS [LDLR_Y465],0.801
5,QRCYVYYYSYL [PTEN_Y176_R173C],2.09
6,HQKKPYCHTHN [NRAP_Y53_A56T],1.27
7,INVTIYGKTFR [EFHC1_Y177_I174V],0.539
8,RRAKGYPIDLY [ITGB2_Y125],0.718
9,RKELFYKADGE [SERPINC1_Y272],0.713
10,KDGNGYISAAE [CALM1_Y100],0.477
11,SRDDYYETIAM [NPY1R_Y347_D346Y],8.35
12,PSQRRNVFFFS [PTEN_Y174_Y174N_YF],1.07
13,ALRASYTPSPA [ESS2_Y418],0.366
14,PINLFYLMDLS [ITGB2_Y131_D128N_YF],0.772
15,MKGDFYCFLAE [YWHAG_Y131_R132C_YF],1.02
16,TSPKSCPSQKH [CAP2_Y316_Y316C],0.432
